The target of this assay is microtubules (MTs) of porcine brain Tubulin (porcine) (UniProt P02550). The experiment in a line: turbidimetry.

Chain of LEM2 N-terminal domain (LEM2NTD; AA:1–208) (Q8NC56 1-208): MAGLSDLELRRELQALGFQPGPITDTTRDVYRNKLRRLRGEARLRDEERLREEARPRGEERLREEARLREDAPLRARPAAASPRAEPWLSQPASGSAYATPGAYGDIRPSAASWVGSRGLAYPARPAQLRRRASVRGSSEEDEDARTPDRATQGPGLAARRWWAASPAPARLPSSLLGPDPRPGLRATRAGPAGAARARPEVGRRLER

As for “LEM2 N-terminal domain (LEM2NTD; AA:1–208) (from UniProt Q8NC56 1-208) (domain or fragment)”, the K (apparent) (half-maximal concentration of MT bundling by light scattering) was 1.3 µM.
“LEM2_(Mim1(S82D, S90D, S96D, Y98D, T100D, Y104D)) (from UniProt Q8NC56 1-208) (domain or fragment)” gave a half max (half-maximal concentration of MT bundling by light scattering) of 2.82 µM.
On the same count and under the same terms, for “LEM2_(Mim2(Y122D, S134D, S138D, S139D, T147D, S166D, S174D, S175D)) (from UniProt Q8NC56 1-208) (domain or fragment)” the value was 8.44 µM.

(Values after article PMC7321842.)
